Results on seven molecules are retold here after patent US20180085432A1, “STING (Stimulator of Interferon Genes), A Regulator of Innate Immune Responses” (University of Miami, priority 2008, published 2018).

The target of assay [1] is T1, STING (Mus musculus, UniProt Q3TBT3).
T1 construct: expressed in transfected cells
T1 sequence (Q3TBT3 1-378): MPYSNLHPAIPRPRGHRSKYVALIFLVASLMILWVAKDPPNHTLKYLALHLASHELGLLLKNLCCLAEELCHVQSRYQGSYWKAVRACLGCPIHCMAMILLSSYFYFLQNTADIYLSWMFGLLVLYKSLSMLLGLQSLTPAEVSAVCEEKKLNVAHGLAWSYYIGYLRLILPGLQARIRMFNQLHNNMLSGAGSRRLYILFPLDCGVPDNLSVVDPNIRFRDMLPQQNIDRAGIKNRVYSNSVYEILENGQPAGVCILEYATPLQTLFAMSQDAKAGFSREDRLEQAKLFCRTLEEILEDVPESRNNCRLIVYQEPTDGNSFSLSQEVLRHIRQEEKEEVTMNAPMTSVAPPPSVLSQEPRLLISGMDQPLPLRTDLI
Briefly: STING trafficking in MEFs stably transfected with HA-STING after ISD stimulation. In kind it is cell-based, murine. To be noted: Brefeldin A (0.1 ng/ml) or chloroquine (0.1 mM) for 1 hour prior to ISD stimulation. As for the experimental part:
FIG. 32B: MEFs stably transfected with HA-STING were treated with Brefeldin A (0.1 ng/ml) or chloroquine (0.1 mM) for 1 hour prior to ISD stimulation (3 hours 1 ng/ml in Lipofectamine 2000). Green=anti-HA and red=anti-calreticulin. FIG. 32C: Wild type MEFs were treated with Brefeldin A as above and IFNβ mRNA measured. FIGS. 32D, 32E: 293T cells were treated with various concentrations of Brefeldin A as above were co-transfected with STING, constitutively active IRF3 or IRF7 and IFN-luciferase reporter plasmid. Luciferase was measured after 24 hours. FIGS. 32F, 32G: Macrophages treated with various chloroquine amounts for one hour were treated with ISD (1 ng/ml), poly (dAT-dAT) [1 ng/ml] or LPS (1ng/ml) and after 16 hours IFNβ or IL6 measured by ELISA. FIG. 32H: STING^−/− MEFS were transfected with HA-STING or HA-STINGΔSP (that lacks the first 36 amino acids representing a potential signal peptide motif) for 24 hours prior to treatment with ISD (1 ng/ml). After 3 hours STING localization was measured using immunofluorescence and an anti-HA antibody (green) or anti calreticulin antibody (red). FIG. 32I: 293T cells were co-transfected with HA-STING or HA-STINGΔSP and an IFN-Luciferase plasmid and after 24 hours luciferase was measured. […] Asterisks indicate significant difference (P<0.05) as determined by Student's t-test. Error bars indicate s.d. […]

The target of assay [2] is STING (Homo sapiens, UniProt Q86WV6). The experiment in a line: STING cell based assay, drug library screen.
The test system of the next assay is S366 peptide. The experiment in a line: screening of kinases for S366 of STING (33P-ATP). The class given is biochemical. To be noted: for Fold inducton: S366 peptide vs A366 peptide; for Activity, S366 peptide: kinase mixed with peptide and 33P-ATP. How it is done: (§1) The activity of 217 protein kinase targets were evaluated against 2 peptides (A366 and S366) as substrate. Protein kinases were mixed with each peptide and ^33P-ATP and then activity (CPM) was measured. The below kinases were identified as phosphorylating S366 in STING. Identification of kinases which target this serine opens up novel avenues for drug discovery. Drugs that target this association may inhibit STING activity and be used for therapeutic purposes to inhibit STING activity. STING over activity may lead to inflammatory diseases which can exacerbate cancer.

A further assay relates to A366 peptide. Briefly: screening of kinases for S366 of STING (33P-ATP). In kind it is biochemical. To be noted: kinase mixed with peptide and 33P-ATP. As for the experimental part: as §1

Sequence of STING (Homo sapiens, UniProt Q86WV6) (Q86WV6 whole entry): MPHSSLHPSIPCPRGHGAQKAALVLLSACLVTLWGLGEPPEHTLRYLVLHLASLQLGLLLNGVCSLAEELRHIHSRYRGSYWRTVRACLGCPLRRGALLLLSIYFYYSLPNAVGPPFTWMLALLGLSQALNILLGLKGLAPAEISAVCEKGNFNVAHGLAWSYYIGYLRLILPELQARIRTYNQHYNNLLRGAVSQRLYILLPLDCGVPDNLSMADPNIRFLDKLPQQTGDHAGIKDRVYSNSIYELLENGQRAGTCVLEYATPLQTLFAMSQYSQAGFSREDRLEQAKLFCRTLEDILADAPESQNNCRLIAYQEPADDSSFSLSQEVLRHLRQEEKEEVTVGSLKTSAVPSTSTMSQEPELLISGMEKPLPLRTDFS

For the molecule `C[C@H]1CCC/C=C/[C@@H]2C[C@H](O)C[C@H]2[C@H](O)/C=C/C(=O)O1` [Brefeldin A], the STING trafficking entry on STING [1] was “blocked STING trafficking”.
Consider `C[C@@H]1O[C@@H](O[C@H]2C[C@@H](O)[C@]3(CO)[C@H]4[C@H](O)C[C@]5(C)[C@@H]([C@@H]6COC(=O)C6)CC[C@]5(O)[C@@H]4CC[C@]3(O)C2)[C@H](O)[C@H](O)[C@H]1O` [dihydroouabain], for which the “Activators of STING” value at STING [2] is “Activators of STING”.
On the same count and under the same terms, the same measure for `O=C(O)/C=C\C(=O)O.O=C1/C(=C/c2ccccc2)C[C@@]2(O)[C@H]3Cc4ccc(O)c5c4[C@@]2(CCN3CC2CC2)[C@H]1O5` [BNTX maleate salt hydrate]: “Activators of STING”.
For `CCN(CC)CCCC(C)Nc1ccnc2cc(Cl)ccc12` (stereo not shown) [chloroquine], at STING [1], the STING trafficking entry is “but not chloroquine blocked STING trafficking”.

B1: TBK1 (protein kinase panel) (enzyme)
chain: MQSTSNHLWLLSDILGQGATANVFRGRHKKTGDLFAIKVFNNISFLRPVDVQMREFEVLKKLNHKNIVKLFAIEEETTTRHKVLIMEFCPCGSLYTVLEEPSNAYGLPESEFLIVLRDVVGGMNHLRENGIVHRDIKPGNIMRVIGEDGQSVYKLTDFGAARELEDDEQFVSLYGTEEYLHPDMYERAVLRKDHQKKYGATVDLWSIGVTFYHAATGSLPFRPFEGPRRNKEVMYKIITGKPSGAISGVQKAENGPIDWSGDMPVSCSLSRGLQVLLTPVLANILEADQEKCWGFDQFFAETSDILHRMVIHVFSLQQMTAHKIYIHSYNTATIFHELVYKQTKIISSNQELIYEGRRLVLEPGRLAQHFPKTTEENPIFVVSREPLNTIGLIYEKISLPKVHPRYDLDGDASMAKAITGVVCYACRIASTLLLYQELMRKGIRWLIELIKDDYNETVHKKTEVVITLDFCIRNIEKTVKVYEKLMKINLEAAELGEISDIHTKLLRLSSSQGTIETSLQDIDSRLSPGGSLADAWAHQEGTHPKDRNVEKLQVLLNCMTEIYYQFKKDKAERRLAYNEEQIHKFDKQKLYYHATKAMTHFTDECVKKYEAFLNKSEEWIRKMLHLRKQLLSLTNQCFDIEEEVSKYQEYTNELQETLPQKMFTASSGIKHTMTPIYPSSNTLVEMTLGMKKLKEEMEGVVKELAENNHILERFGSLTMDGGLRNVDCL
With B1, the Activity (cpm), kinase mixed with peptide and 33P-ATP in the assay with A366 peptide of STING stood at 6600 cpm. In the assay with S366 peptide of STING, this molecule yielded an Activity (cpm), kinase mixed with peptide and 33P-ATP of 16700 cpm. For the same molecule, in the assay on S366 peptide, the Fold inducton came out at 2.52 and the “Activity, S366 peptide” value is reported as 16651 cpm. Also, in the assay on A366 peptide, the “Activity, A366 peptide” value worked out at 6603 cpm.

B2: ULK1 (enzyme)
chain: MEPGRGGTETVGKFEFSRKDLIGHGAFAVVFKGRHREKHDLEVAVKCINKKNLAKSQTLLGKEIKILKELKHENIVALYDFQEMANSVYLVMEYCNGGDLADYLHAMRTLSEDTIRLFLQQIAGAMRLLHSKGIIHRDLKPQNILLSNPAGRRANPNSIRVKIADFGFARYLQSNMMAATLCGSPMYMAPEVIMSQHYDGKADLWSIGTIVYQCLTGKAPFQASSPQDLRLFYEKNKTLVPTIPRETSAPLRQLLLALLQRNHKDRMDFDEFFHHPFLDASPSVRKSPPVPVPSYPSSGSGSSSSSSSTSHLASPPSLGEMQQLQKTLASPADTAGFLHSSRDSGGSKDSSCDTDDFVMVPAQFPGDLVAEAPSAKPPPDSLMCSGSSLVASAGLESHGRTPSPSPPCSSSPSPSGRAGPFSSSRCGASVPIPVPTQVQNYQRIERNLQSPTQFQTPRSSAIRRSGSTSPLGFARASPSPPAHAEHGGVLARKMSLGGGRPYTPSPQVGTIPERPGWSGTPSPQGAEMRGGRSPRPGSSAPEHSPRTSGLGCRLHSAPNLSDLHVVRPKLPKPPTDPLGAVFSPPQASPPQPSHGLQSCRNLRGSPKLPDFLQRNPLPPILGSPTKAVPSFDFPKTPSSQNLLALLARQ
With B2, in the assay with A366 peptide of STING, the Activity (cpm), kinase mixed with peptide and 33P-ATP turned out to be 12200 cpm. The Activity (cpm), kinase mixed with peptide and 33P-ATP with S366 peptide of STING came to 209000 cpm. Also, in the assay on S366 peptide, the Fold inducton is listed as 17.10 and the “Activity, S366 peptide” value is given as 209014 cpm. The “Activity, A366 peptide” value in the assay on A366 peptide came to 12221 cpm.

B3: ULK2 (enzyme)
chain: MEVVGDFEYSKRDLVGHGAFAVVFRGRHRQKTDWEVAIKSINKKNLSKSQILLGKEIKILKELQHENIVALYDVQELPNSVFLVMEYCNGGDLADYLQAKGTLSEDTIRVFLHQIAAAMRILHSKGIIHRDLKPQNILLSYANRRKSSVSGIRIKIADFGFARYLHSNMMAATLCGSPMYMAPEVIMSQHYDAKADLWSIGTVIYQCLVGKPPFQANSPQDLRMFYEKNRSLMPSIPRETSPYLANLLLGLLQRNQKDRMDFEAFFSHPFLEQGPVKKSCPVPVPMYSGSVSGSSCGSSPSCRFASPPSLPDMQHIQEENLSSPPLGPPNYLQVSKDSASTSSKNSSCDTDDFVLVPHNISSDHSCDMPVGTAGRRASNEFLVCGGQCQPTVSPHSETAPIPVPTQIRNYQRIEQNLTSTASSGTNVHGSPRSAVVRRSNTSPMGFLRPGSCSPVPADTAQTVGRRLSTGSSRPYSPSPLVGTIPEQFSQCCCGHPQGHDSRSRNSSGSPVPQAQSPQSLLSGARLQSAPTLTDIYQNKQKLRKQHSDPVCPSHTGAGYSYSPQPSRPGSLGTSPTKHLGSSPRSSDWFFKTPLPTIIGSPTKTTAPFKIPKTQASSNLLALVTRHGPAEE
Consider B3, for which the Activity (cpm), kinase mixed with peptide and 33P-ATP with A366 peptide of STING worked out at 7380 cpm. This molecule also registered an Activity (cpm), kinase mixed with peptide and 33P-ATP in the assay with S366 peptide of STING of 15600 cpm. Further, in the assay on S366 peptide, the Fold inducton worked out at 21.13 and the “Activity, S366 peptide” value was 15580 cpm. In the assay on A366 peptide, the “Activity, A366 peptide” value came to 7377 cpm.
